The values that follow are results of earlier work, collected in publication doi:10.1101/390104.

A word on the pKa: it is the negative logarithm of the acid dissociation constant.

What all share (assay): NMR
Common to all, as to conditions: folded inactive HdeA dimer, client-free (inferred from context); cited from earlier work

In data set [1] the target is Asp51 (UniProt position 72, EDAVLDVQGIA).
Data set [2] deals with Glu46 (UniProt position 67, NKDKPEDAVLD).
Data set [3] concerns the target Asp47 (UniProt position 68, KDKPEDAVLDV).

Turning to “Acid stress chaperone HdeA (wild type) (Escherichia coli)”, the pKa was 3.83 in data set [1], 4.07 in data set [2] and 4.14 in data set [3].
